From CN117751139A (YONGXIAN PHARMACEUTICAL CO LTD; UNIV AIX MARSEILLE; INST …, dated 2024) come the findings set out here.

Test [1] has as its target T1, Nectin-4 extracellular domain Fc fusion recombinant protein (Nec4-VCC) (human, UniProt Q96NY8 32-349).
T1 construct: extracellular domain; also called Nectin-4-VCC-Fc; not shown: Fc part
T1 sequence (looked up): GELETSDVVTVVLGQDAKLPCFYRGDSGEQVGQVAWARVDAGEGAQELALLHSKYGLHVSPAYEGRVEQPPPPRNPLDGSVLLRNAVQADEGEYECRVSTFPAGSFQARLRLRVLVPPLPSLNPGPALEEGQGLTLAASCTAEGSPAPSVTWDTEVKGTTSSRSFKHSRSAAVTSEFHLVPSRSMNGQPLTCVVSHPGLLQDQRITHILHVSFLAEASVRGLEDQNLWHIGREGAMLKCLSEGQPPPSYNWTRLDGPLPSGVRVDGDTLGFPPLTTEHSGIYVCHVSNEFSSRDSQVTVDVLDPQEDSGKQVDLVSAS
Nature of the test: statement in the legend of the competition ELISA on coated Nec4-VCC.

Test [2] deals with T2, Nectin-1 extracellular domain Fc fusion recombinant protein (Nec1-VCC) (UniProt Q15223 31-355, limits assumed).
T2 construct: extracellular domain; also called Nectin-1-VCC-Fc; not shown: Fc part
T2 sequence (looked up): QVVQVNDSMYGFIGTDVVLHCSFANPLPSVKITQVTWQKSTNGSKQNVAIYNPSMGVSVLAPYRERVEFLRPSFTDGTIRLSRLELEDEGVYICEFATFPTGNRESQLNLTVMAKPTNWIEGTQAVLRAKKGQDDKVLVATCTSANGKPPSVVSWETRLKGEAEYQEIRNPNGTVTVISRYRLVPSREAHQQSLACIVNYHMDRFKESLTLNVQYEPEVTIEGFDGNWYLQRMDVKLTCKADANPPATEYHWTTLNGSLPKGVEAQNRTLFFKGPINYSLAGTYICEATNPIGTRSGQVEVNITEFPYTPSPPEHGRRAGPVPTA
Nature of the test: ELISA, Nec1-VCC coated on plate, peroxidase-conjugated Ch-15A7.5.

Test [3] has as its target T3, human Nectin-4 on CHO cells transfected with human Nectin-4 cDNA (human, UniProt Q96NY8 32-510).
T3 construct: whole, on cells
T3 sequence (looked up): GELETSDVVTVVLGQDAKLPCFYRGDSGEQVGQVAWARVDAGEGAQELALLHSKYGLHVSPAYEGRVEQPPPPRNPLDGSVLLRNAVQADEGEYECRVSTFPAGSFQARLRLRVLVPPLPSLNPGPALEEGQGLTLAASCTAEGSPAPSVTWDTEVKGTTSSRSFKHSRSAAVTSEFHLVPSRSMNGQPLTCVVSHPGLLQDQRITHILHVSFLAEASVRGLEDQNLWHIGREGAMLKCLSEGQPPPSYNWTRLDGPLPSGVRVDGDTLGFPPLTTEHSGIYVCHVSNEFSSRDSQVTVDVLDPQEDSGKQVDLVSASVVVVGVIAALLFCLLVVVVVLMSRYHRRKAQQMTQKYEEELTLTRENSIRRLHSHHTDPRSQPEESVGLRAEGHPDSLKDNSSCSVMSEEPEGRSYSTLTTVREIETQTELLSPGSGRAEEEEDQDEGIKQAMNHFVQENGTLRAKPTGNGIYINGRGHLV
Description: flow cytometry competition on CHO cells with human Nectin-4; competitor Nec1-VCC.

Test [4] concerns the target T4, human Nectin-4 with N-terminal Flag epitope tag, on transfected MDA-MB231 cells (human, UniProt Q96NY8 32-510).
T4 construct: whole, on cells; also called PVRL4; PRR4
T4 sequence (looked up): T3 sequence (looked up)
Nature of the test: flow cytometry on MDA-MB231 cells transfected with N-terminally Flag-tagged Nectin-4.

For test [5], the target named is T5, Nectin-4 expressed by normal differentiated human keratinocytes (NHEK) (human, UniProt Q96NY8 32-510).
T5 construct: whole, on cells; also called Nectin-4 on NHEK; keratinocyte Nectin-4
T5 sequence (looked up): T3 sequence (looked up)
Nature of the test: flow cytometry on normal differentiated human keratinocytes (NHEK), 8 pM-33 nM; reference of the comparison.

B1: HA22 (enfortumab) (antibody, V domains shown)
VH: EVQLVESGGGLVQPGGSLRLSCAASGFTFSSYNMNWVRQAPGKGLEWVSYISSSSSTIYYADSVKGRFTISRDNAKNSLSLQMNSLRDEDTAVYYCARAYYYGMDVWGQGTTVTVSS
VL: DIQMTQSPSSVSASVGDRVTITCRASQGISGWLAWYQQKPGKAPKFLIYAASTLQSGVPSRFSGSGSGTDFTLTISSLQPEDFATYYCQQANSFPPTFGGGTKVEIK
notes: also called 恩弗妥单抗; HA22 mAb
Consider B1, for which, in test [1], the binding result is “binds”.

B2: Ch-15A7.5 (antibody, V domains shown)
VH: EVKLVESGGGLVQPGGSRKLSCAASGFTFSNYGMAWVRQAPGKGPEWVAFISNLAYGINYADTVTGRFTISRENAKNTLYLEMRSLRSEDTAMYYCARGARATGWFAYWGQGTLVTVSA
VL: DIVMTQSQKFMSTSIGDRVSVTCKASQNVDTHVAWYQEKPGQSPKALIYSASYRYSGVPDRFTGSGSGTDFTLTISNVQSEDLADYFCQQYNSYPLTFGGGTKLEIK
notes: also called Ch-15A7.5 mAb; Ch-15A7 mAb
Consider B2, for which, in test [2], the binding result is reported as “no binding (tested: 10nM)”.

B3: Ch-5A12.2 (antibody, V domains shown)
VH: QIQLQQSGAELVKPGASVTLSCKTSGFTFNSMYISWLKQKPGQSLEWIAWIYAGTGGTRFNQKFTGKVQLTVDTSSSTAYMQFSSLTTDDSAIYYCAIRSGFVPMDYWGQGTSVTVSS
VL: SIVMTQTPKFLLVSAGDRVTITCKASQSVSNDVAWYQQKPGQSPKLLIYYASNRYTGVPDRFTGSGYGTDFTFTISTVQAEDLAVYFCQQDYSSPWTFGGGTKLEIK
notes: also called 5A12.2 mAb; chimeric 5A12.2
For B3, the binding result in test [3], in test [4] and in test [5] was “binds” each time.
